From US20180273595A1 (REGENTS OF THE UNIVERSITY OF MICHIGAN, published 2018) come the findings set out here.

For experiment [1], the target named is T1, ERG_Y373A (purified recombinant ERG with Y373A) (UniProt P11308 1-479, limits assumed, biotinylated for OctetRED).
T1 construct: also called Y373A mutation
T1 sequence (looked up): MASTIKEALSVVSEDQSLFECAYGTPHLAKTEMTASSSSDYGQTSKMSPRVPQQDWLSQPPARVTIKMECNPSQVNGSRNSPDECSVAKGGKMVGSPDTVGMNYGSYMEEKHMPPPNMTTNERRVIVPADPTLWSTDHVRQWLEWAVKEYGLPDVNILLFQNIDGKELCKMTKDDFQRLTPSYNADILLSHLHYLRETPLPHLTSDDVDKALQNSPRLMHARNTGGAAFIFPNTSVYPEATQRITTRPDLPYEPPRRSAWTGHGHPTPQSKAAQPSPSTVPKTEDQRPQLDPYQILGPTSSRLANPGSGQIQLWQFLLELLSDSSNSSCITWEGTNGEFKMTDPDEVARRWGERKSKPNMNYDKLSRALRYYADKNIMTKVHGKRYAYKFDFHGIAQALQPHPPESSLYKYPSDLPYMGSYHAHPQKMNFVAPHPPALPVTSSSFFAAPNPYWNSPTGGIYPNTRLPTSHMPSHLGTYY
Put plainly: pull-down of purified recombinant proteins with biotin peptide.

For experiment [2], the target named is T2, Halo-tagged ERG mutant Y373A (UniProt P11308 1-479).
T2 construct: mature; also called ERG (Y373A); negative control ERG (Y373A); not shown: Halo-tag at the N-terminus
T2 sequence (looked up): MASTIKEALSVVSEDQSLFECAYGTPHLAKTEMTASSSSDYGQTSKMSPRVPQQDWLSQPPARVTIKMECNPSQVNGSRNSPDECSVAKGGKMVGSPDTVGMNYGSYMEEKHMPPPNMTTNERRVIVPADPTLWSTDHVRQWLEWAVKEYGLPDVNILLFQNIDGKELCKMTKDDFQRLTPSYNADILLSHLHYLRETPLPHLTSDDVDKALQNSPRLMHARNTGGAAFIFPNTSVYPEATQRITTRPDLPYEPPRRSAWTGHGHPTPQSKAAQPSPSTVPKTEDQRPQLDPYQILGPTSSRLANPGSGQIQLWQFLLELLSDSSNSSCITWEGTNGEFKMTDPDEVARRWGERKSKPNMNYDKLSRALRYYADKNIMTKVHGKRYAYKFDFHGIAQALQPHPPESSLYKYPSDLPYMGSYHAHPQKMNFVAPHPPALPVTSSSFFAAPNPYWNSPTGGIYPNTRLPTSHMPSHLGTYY
Put plainly: pull-down of Halo-tagged proteins with biotin peptide.

For experiment [3], the target named is T3, Halo-tagged full-length Spi1 (UniProt P17947 1-270).
T3 construct: mature; not shown: Halo-tag at the N-terminus
Described as above.

Where no end group is shown, it is not given here. The star is where a group is joined. Biotin = O=C1N[C@H]2[C@H](CS[C@H]2CCCCC(=O)*)N1

B1: biotinylated EIP1 peptide (Biotin-LPPYLFT) (peptide)
peptide: Biotin-LPPYLFT
notes: also called Biotin-EIP1; biotin-conjugated EIP1
For B1, the binding result in experiment [1] is “no binding”.

Consider Biotin-LSFGSLP (also called biotin-EIP2) [biotinylated EIP2 peptide (Biotin-LSFGSLP)], for which the binding result in experiment [2] and in experiment [3] was “no binding” in each case.
